Measurements reported in patent US10500249B2, “Compositions and methods for preventing or treating diseases, conditions, or processes characterized by aberrant fibroblast proliferation and extracellular matrix deposition” (MOERAE MATRIX, INC., priority 2014, dated 2019).

Experiments:
Experiment in all cases: Kinase Profiling Assay
Type in all cases: biochemical
Settings in all cases: 100 μM
Arg (h) = Arg (h) (Homo sapiens, UniProt P42684)
In short: (§1)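 Kinase inhibition by MK2 inhibitory peptides was profiled radiometrically, with substrate phosphorylation from labeled ATP read by scintillation after capture on a charged filter. Values are relative to 100% activity and measured in duplicate.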

Itk (h) = target: T1, Itk (h) (Homo sapiens, UniProt Q08881)
T1 construct: purchased Millipore
T1 sequence (Q08881 1-620): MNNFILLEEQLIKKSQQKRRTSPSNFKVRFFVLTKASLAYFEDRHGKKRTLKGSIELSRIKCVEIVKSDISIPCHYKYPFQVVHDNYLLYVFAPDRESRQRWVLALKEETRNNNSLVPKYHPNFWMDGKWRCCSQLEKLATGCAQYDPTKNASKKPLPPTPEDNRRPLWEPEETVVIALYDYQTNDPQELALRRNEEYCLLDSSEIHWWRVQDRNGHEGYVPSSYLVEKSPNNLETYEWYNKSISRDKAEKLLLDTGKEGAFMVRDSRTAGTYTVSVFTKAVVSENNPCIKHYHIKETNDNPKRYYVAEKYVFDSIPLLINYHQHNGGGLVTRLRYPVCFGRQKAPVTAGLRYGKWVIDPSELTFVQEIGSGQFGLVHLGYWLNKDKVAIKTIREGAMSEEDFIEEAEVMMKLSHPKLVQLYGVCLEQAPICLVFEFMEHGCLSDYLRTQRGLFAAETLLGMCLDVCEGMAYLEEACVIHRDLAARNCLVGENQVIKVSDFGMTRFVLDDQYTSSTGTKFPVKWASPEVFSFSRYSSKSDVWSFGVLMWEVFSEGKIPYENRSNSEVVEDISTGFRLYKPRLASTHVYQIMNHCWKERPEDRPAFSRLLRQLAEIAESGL
In short: as §1

ZAP-70 (h) = target: T2, ZAP-70 (h) (Homo sapiens, UniProt P43403)
T2 sequence (P43403 1-619): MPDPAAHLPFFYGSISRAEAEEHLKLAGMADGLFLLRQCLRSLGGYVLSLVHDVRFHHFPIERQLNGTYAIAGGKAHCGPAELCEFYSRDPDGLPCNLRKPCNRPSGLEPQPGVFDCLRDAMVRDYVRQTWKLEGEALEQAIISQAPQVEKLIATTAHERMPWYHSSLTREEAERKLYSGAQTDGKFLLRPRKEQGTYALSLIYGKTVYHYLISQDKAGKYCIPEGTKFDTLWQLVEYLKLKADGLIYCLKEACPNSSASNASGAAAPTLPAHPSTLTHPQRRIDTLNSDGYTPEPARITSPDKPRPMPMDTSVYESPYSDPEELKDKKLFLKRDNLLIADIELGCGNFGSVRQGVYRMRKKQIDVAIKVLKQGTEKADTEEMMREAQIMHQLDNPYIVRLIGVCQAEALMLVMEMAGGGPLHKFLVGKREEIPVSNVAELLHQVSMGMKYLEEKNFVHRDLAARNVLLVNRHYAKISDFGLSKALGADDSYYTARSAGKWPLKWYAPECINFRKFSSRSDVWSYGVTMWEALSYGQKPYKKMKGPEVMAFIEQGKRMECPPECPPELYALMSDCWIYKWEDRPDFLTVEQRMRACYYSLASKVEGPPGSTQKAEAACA
In short: as §1

MAPK2 (h) = MAPK2 (h) (Homo sapiens, UniProt P28482)
In short: as §1

Syk (h) = Syk (h) (Homo sapiens, UniProt P43405)
In short: as §1

Pim-1 (h) = target: T3, Pim-1 (h) (Homo sapiens, UniProt P11309)
T3 construct: purchased Millipore
In short: as §1

DRAK1 (h) = target: T4, DRAK1 (h) (Homo sapiens, UniProt Q9UEE5)
T4 construct: purchased Millipore
T4 sequence (Q9UEE5 1-414): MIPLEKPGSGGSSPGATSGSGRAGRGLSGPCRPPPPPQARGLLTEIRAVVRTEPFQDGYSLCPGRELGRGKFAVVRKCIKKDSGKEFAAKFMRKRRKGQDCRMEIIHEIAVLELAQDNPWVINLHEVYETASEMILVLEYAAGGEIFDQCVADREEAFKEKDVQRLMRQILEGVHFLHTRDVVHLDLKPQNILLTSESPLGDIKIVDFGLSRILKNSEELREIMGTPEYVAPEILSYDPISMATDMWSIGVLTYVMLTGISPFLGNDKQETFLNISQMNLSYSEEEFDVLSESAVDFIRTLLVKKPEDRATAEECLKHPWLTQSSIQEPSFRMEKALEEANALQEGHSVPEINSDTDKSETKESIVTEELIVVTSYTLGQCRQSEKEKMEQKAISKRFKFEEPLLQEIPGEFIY
In short: as §1

TSSK1 (h) = target: T5, TSSK1 (h) (Homo sapiens, UniProt Q9BXA7)
T5 sequence (Q9BXA7 1-367): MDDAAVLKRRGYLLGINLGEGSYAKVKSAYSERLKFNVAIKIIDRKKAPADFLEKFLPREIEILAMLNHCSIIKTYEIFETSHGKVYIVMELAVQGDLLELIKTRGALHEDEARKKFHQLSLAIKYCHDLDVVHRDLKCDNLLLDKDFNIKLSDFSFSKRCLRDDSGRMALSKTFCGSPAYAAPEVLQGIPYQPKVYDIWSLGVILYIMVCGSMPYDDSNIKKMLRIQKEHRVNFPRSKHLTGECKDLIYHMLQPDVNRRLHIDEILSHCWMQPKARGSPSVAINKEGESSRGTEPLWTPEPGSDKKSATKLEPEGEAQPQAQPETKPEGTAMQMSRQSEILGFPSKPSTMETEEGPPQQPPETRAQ
In short: as §1

mTOR/FKBP12 (h) = target: T6, mTOR/FKBP12 (h) (Homo sapiens, UniProt P42345)
T6 construct: purchased Millipore
In short: as §1

Chain of MAPK2 (h) (P28482 whole entry): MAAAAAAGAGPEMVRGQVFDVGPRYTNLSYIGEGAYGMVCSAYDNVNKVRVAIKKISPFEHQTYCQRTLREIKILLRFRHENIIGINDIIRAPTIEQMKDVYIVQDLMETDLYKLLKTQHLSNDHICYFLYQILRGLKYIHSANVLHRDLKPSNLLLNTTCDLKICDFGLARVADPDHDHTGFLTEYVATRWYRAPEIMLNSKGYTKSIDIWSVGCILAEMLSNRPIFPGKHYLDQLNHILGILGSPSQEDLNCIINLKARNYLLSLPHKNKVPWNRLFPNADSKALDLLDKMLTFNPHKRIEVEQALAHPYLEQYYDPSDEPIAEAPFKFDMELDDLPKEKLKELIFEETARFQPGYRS
T3 sequence (P11309 whole entry): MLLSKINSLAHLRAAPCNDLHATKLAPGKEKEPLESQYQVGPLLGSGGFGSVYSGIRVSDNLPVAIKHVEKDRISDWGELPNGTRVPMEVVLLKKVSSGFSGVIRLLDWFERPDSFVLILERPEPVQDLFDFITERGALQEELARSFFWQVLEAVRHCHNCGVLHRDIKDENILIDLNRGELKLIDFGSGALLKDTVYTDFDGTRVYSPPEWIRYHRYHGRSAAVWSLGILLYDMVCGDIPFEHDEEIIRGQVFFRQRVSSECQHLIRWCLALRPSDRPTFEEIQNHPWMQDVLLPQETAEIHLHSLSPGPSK
T6 sequence (P42345 1362-2549 limits assumed): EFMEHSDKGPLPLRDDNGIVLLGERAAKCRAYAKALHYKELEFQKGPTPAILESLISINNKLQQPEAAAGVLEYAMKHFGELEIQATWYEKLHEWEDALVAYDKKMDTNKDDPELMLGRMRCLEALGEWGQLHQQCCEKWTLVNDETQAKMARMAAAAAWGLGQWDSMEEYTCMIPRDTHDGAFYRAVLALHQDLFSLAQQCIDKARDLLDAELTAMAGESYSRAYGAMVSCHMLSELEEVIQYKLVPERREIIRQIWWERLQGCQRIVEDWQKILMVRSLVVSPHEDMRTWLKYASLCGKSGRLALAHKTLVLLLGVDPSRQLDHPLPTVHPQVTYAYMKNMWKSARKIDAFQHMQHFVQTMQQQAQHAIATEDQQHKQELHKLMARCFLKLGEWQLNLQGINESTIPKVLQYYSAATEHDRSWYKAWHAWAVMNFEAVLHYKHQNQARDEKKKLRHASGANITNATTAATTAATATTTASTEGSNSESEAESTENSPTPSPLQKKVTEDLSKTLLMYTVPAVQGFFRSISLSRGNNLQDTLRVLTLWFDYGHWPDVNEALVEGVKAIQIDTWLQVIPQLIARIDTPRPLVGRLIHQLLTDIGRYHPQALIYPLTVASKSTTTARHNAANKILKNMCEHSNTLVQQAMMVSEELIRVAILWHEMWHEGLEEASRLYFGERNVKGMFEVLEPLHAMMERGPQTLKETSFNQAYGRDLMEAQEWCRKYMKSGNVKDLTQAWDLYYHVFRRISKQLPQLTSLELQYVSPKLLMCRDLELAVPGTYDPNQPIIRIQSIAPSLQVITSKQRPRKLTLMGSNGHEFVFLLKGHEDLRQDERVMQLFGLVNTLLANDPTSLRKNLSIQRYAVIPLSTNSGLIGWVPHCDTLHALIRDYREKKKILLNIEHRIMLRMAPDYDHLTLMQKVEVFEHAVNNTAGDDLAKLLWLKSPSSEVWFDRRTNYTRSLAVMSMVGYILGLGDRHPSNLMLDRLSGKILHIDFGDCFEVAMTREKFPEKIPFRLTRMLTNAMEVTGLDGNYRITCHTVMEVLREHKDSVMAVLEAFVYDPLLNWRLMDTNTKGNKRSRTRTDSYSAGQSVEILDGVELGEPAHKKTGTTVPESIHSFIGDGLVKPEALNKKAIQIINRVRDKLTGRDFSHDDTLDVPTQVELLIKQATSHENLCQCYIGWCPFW
Chain of Arg (h) (P42684 whole entry): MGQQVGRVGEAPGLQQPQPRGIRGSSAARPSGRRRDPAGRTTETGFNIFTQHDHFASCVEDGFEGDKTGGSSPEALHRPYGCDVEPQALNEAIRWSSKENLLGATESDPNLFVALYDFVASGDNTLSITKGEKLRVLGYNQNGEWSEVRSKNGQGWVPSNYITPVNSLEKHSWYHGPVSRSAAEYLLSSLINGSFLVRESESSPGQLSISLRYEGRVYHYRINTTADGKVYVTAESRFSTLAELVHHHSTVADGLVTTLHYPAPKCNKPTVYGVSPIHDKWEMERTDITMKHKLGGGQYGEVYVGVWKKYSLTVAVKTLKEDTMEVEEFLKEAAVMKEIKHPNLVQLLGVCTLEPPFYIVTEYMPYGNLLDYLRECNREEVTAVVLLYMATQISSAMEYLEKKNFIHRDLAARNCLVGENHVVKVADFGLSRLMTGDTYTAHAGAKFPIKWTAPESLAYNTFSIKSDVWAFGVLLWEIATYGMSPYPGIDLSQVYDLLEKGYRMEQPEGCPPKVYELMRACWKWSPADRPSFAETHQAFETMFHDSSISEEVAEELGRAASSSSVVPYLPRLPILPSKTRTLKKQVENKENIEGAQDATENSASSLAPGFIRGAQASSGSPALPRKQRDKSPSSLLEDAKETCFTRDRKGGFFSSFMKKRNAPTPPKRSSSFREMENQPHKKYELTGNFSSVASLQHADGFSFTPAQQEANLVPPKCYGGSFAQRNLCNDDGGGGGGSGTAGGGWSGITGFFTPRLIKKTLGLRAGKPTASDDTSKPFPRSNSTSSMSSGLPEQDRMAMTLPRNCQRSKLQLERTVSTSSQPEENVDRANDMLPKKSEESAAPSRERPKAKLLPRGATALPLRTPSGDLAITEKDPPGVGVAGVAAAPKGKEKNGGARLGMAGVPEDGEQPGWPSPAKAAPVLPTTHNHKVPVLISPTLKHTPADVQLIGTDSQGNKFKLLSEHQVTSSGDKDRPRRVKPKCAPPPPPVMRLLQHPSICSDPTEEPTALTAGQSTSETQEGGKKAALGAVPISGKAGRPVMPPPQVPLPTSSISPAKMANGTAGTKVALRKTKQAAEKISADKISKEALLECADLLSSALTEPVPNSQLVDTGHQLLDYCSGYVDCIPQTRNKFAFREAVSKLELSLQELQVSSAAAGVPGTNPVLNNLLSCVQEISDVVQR

Sequence | % activity (Arg (h)) [%] | % activity (Itk (h)) [%] | % activity (ZAP-70 (h)) [%] | % activity (MAPK2 (h)) [%] | % activity (Syk (h)) [%] | % activity (Pim-1 (h)) [%] | % activity (DRAK1 (h)) [%] | % activity (TSSK1 (h)) [%] | % activity (mTOR/FKBP12 (h)) [%]
FAKLAARLYRKALARQLGVAA [MMI-0300] | 72 | 77 | 75 | 98 | 24 | 8 | 14 | 79 | 145
HRRIKAWLKKIKALARQLGVAA (Mammalian) [MMI-0500] | 22 | 7 | 1 | 60 | 5 | 0 | 8 | 46 | 140
KAFAKLAARLYRKALARQLGVAA [MMI-0400] | 84 | 63 | 33 | 93 | 9 | 7 | 14 | 79 | 125
YARAAARQARAKALNRQLGVA (Mammalian) [MMI-0200] | 82 | 98 | 58 | – | 36 | 18 | 34 | 98 | 118
